Test results taken from PMC2670979 (2009).

B1: GST-Miro1 WT [not stated] / TRAK2 (amino acids 476–700) [modified: 35S-methionine label; 35S-methionine label] [not stated] (parent complex)
chain 1: MKKDVRILLVGEPRVGKTSLIMSLVSEEFPEEVPPRAEEITIPADVTPERVPTHIVDYSEAEQSDEQLHQEISQANVICIVYAVNNKHSIDKVTSRWIPLINERTDKDSRLPLILVGNKSDLVEYSSMETILPIMNQYTEIETCVECSAKNLKNISELFYYAQKAVLHPTGPLYCPEEKEMKPACIKALTRIFKISDQDNDGTLNDAELNFFQRICFNTPLAPQALEDVKNVVRKHISDGVADSGLTLKGFLFLHTLFIQRGRHETTWTVLRRFGYDDDLDLTPEYLFPLLKIPPDCTTELNHHAYLFLQSTFDKHDLDRDCALSPDELKDLFKVFPYIPWGPDVNNTVCTNERGWITYQGFLSQWTLTTYLDVQRCLEYLGYLGYSILTEQESQASAVTVTRDKKIDLQKKQTQRNVFRCNVIGVKNCGKSGVLQALLGRNLMRQKKIREDHKSYYAINTVYVYGQEKYLLLHDISESEFLTEAEIICDVVCLVYDVSNPKSFEYCARIFKQHFMDSRIPCLIVAAKSDLHEVKQEYSISPTDFCRKHKMPPPQAFTCNTADAPSKDIFVKLTTMAMYPHVTQADLKSSTFWLRASFGATVFAVLGFAMYKALLKQR
chain 2: EDSDLATALHRLSLRRQNYLSEKQFFAEEWERKLQILAEQEEEVSSCEALTENLASFCTDQSETTELGSAGCLRGFMPEKLQIVKPLEGSQTLHHWQQLAQPNLGTILDPRPGVITKGFTQMPKDAVYHISDLEEDEEVGITFQVQQPLQLEQKPAPPPPVTGIFLPPMTSAGGPVSVATSNPGKCLSFTNSTFTFTTCRILHPSDITQVTPSSGFPSLSCGSSA

Variants of: B1
Test: GST pull-down of in vitro translated 35S-labeled protein; 2 mM Ca2+; normalized to 100 at 0 mM Ca2+; parent: 110; read off a plot

screen value	Variant
~120	chain 1 E208K, chain 1 E328K
